Data on 1 molecule can be found in patent US20210063414A1, “METHODS FOR PREVENTING AND/OR TREATING BONE LOSS CONDITIONS BY MODULATING IRISIN” (Dana-Farber Cancer Institute, Inc., priority 2018, published 2021).

Assay [1] concerns the target T1, MLO-Y4 cell surface proteins (Mus musculus, UniProt Q9WTP6).
T1 construct: endogenous in cells; host or cells: MLO-Y4
The assay can be described thus: Crosslinking/co-immunoprecipitation/mass spectrometry (TMT quantitative proteomics) to identify irisin receptors. The class given is binding. The note with it: co-precipitated protein Ak2 (KAD2_MOUSE). The method in brief: (§1)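 Relative protein abundance came from 6-plex TMT MS3 quantitation on an Orbitrap Fusion Lumos, after in-gel trypsin digestion of Coomassie-stained SDS-PAGE lanes. Input was a Ni-NTA pulldown (250 mM imidazole elution) of lysates from murine MLO-Y4 cells. These cells were treated on ice with His-tagged irisin or adipsin (10 nM, 20 min) in serum-free medium, then crosslinked with 1.5 mM DTSSP for 30 min.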

Assay [2] addresses T2, MLO-Y4 cell surface proteins (Mus musculus, UniProt E9Q9D8).
T2 construct: endogenous in cells; host or cells: MLO-Y4
T2 sequence (E9Q9D8 1-996): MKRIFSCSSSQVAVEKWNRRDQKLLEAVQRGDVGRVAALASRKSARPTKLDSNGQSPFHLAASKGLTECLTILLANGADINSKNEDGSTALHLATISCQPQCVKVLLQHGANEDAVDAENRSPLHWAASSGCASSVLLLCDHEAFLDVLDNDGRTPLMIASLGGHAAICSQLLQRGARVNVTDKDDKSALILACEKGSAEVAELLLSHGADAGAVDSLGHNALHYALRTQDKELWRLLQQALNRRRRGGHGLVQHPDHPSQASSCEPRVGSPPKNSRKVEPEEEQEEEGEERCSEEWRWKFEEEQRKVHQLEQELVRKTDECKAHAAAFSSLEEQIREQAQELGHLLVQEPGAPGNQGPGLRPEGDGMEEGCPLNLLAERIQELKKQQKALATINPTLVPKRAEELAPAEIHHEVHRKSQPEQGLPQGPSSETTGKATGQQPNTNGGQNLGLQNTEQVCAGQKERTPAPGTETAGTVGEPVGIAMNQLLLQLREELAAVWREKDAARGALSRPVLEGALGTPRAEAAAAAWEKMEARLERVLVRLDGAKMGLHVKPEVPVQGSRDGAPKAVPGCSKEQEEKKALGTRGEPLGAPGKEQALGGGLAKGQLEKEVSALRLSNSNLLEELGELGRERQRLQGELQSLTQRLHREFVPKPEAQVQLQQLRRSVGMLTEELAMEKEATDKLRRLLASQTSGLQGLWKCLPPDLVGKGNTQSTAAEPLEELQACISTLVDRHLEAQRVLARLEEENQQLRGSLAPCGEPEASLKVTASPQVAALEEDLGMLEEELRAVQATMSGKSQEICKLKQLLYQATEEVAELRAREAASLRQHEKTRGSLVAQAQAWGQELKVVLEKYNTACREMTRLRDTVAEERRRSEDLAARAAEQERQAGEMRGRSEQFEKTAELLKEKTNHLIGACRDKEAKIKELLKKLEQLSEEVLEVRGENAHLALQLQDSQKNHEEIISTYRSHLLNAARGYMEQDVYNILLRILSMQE
The assay is described as above. The class given is binding. Conditions: co-precipitated protein Ankrd35 (E9Q9D8_MOUSE). The method in brief:
as §1

B1: irisin: secreted cleaved form of FNDC5; recombinant human/mouse irisin with C-terminal his tag produced in HEK293 cells (protein)
chain: DSPSAPVNVTVRHLKANSAVVSWDVLEDEVVIGFAISQQKKDVRMLRFIQEVNTTTRSCALWDLEEDTEYIVHVQAISIQGQSPASEPVLFKTPREAEKMASKNKDEVTMKE
modifications: left off: small tags and cut ends
notes: secreted cleaved form of FNDC5; recombinant human/mouse irisin with C-terminal his tag produced in HEK293 cells
As for B1, the TMT signal-to-noise ratio in assay [1] was found to be 61.9776; in assay [2], 3.32. For the same molecule, the results for the “irisin/adipsin TMT signal-to-noise ratio” value in assay [1] and in assay [2] were 0.546 and 0.011, respectively.
